Laboratory results as given in the supplement of paper PMC10126150.
± gives the standard deviation of the averaged measurements.

Test system: ATP
Experiment: switch fluorescence ratio, 500 uM ATP over buffer (Cy3 cluster intensity, sum of 5 cycles each) (fold (ratio)); higher = stronger signal-on switching upon ATP binding; sequences stand for … in TCGTCGGCAGCGTCAGATGTGTATAAGAGACAGTTTTTTTTTTTTTTTTTTTTTTTTT…TC
Details: aptamer strand: ATP DNA aptamer (quencher-CACCTGGGGGAGTATTGCGGAGGAAGG + anchor), 100 nM annealed; ATP concentration: 500 uM
Method in brief: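 Cy3-labelled switching-strand clusters on a modified Illumina MiSeq flow-cell were annealed to 100 nM quencher-labelled ATP aptamer and imaged first in selection buffer, then after 15 min with 500 uM ATP at 22 °C. NaOH stripping and re-annealing separated each of five buffer/ATP cycles, and clusters outside 100-1000 RFU were excluded. The fluorescence ratio sums target-cycle Cy3 intensity over buffer-cycle Cy3 intensity per cluster and averages it per switch-domain sequence.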
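Note: ATP exposure 15 min at 22 °C before imaging.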

| Sequence | switch fluorescence ratio |
| --- | --- |
| TCTGTTTGTT | 1.015 ± 0.01 |
| TCTGTTTTTT | 0.989 ± 0.01 |
| TCTTACGGGG | 1.003 ± 0.01 |
| TCTTAGCATA | 1.18 ± 0.13 |
| TCTTAGCGCG | 1.07 ± 0.041 |
| TCTTAGGACG | 0.997 ± 0.036 |
| TCTTAGGTGG | 1.05 ± 0.016 |
| TCTTAGTAGT | 0.986 ± 0.028 |
| TCTTATAATA | 0.988 ± 0.032 |
| TCTTATAATT | 1.01 ± 0.011 |
| TCTTATTCAA | 0.98 ± 0.012 |
| TCTTATTGCT | 0.96 ± 0.045 |
| TCTTATTGGT | 1.01 ± 0.013 |
| TCTTCACGTC | 1.003 ± 0.0029 |
| TCTTCACTAC | 1.25 ± 0.06 |
| TCTTCATGCG | 1.07 ± 0.053 |
| TCTTCGGTTG | 0.9805 ± 0.0096 |
| TCTTGACTAG | 1.06 ± 0.053 |
| TCTTGATGGG | 0.9811 ± 0.008 |
| TCTTGCATAA | 1.07 ± 0.076 |
| TCTTGGACGG | 0.985 ± 0.021 |
| TCTTGGGACG | 0.979 ± 0.042 |
| TCTTGGGTAT | 0.986 ± 0.035 |

| Sequence | switch fluorescence ratio |
| --- | --- |
| TCTTGTGAGT | 0.984 ± 0.012 |
| TCTTGTGG | 0.982 ± 0.012 |
| TCTTTACAAA | 1.03 ± 0.02 |
| TCTTTACAGG | 1.09 ± 0.067 |
| TCTTTATATG | 0.9989 ± 0.0033 |
| TCTTTCAGGA | 0.999 ± 0.013 |
| TCTTTGGAAC | 0.997 ± 0.034 |
| TCTTTGGGCT | 1.1 ± 0.19 |
| TCTTTGGGTT | 1.42 ± 0.92 |
| TCTTTGTTG | 1.02 ± 0.02 |
| TCTTTGTTTT | 0.991 ± 0.021 |
| TCTTTTACTG | 1.01 ± 0.033 |
| TCTTTTAGTA | 0.991 ± 0.035 |
| TCTTTTATTT | 0.998 ± 0.043 |
| TCTTTTGGGT | 0.9777 ± 0.0063 |
| TGAAAAAGG | 0.982 ± 0.019 |
| TGAAAAAGGG | 1.04 ± 0.027 |
| TGAAAAGGGA | 1.01 ± 0.017 |
| TGAAAATAG | 0.992 ± 0.018 |
| TGAAAATTTT | 0.99 ± 0.029 |
| TGAAAGATTA | 1.01 ± 0.029 |
| TGAAAGGCGT | 0.9862 ± 0.0072 |
| TGAAAGGGAT | 0.988 ± 0.077 |

| Sequence | switch fluorescence ratio |
| --- | --- |
| TGAAAGGGTA | 0.999 ± 0.022 |
| TGAAAGTTTT | 0.971 ± 0.025 |
| TGAAATATTT | 1.21 ± 0.21 |
| TGAAATGATC | 1.001 ± 0.0098 |
| TGAAATGGGT | 1.17 ± 0.24 |
| TGAACCAAGC | 1.08 ± 0.011 |
| TGAACCGCGA | 2.96 ± 0.18 |
| TGAACGGGGG | 1.02 ± 0.049 |
| TGAACTAAAT | 1.01 ± 0.024 |
| TGAACTTGGT | 0.929 ± 0.12 |
| TGAAGAGGGG | 0.994 ± 0.012 |
| TGAAGATGTG | 0.993 ± 0.02 |
| TGAAGCCTAC | 2.57 ± 0.28 |
| TGAAGGACCG | 0.952 ± 0.026 |
| TGAAGGCTTT | 1.01 ± 0.052 |
| TGAAGGGAAC | 1.06 ± 0.13 |
| TGAAGGGACG | 1.02 ± 0.015 |
| TGAAGGGGCT | 0.9833 ± 0.0052 |
| TGAAGGTAAC | 0.98 ± 0.012 |
| TGAAGTGAAC | 1.17 ± 0.22 |
| TGAAGTTCTT | 0.965 ± 0.011 |
| TGAATAAAGT | 0.978 ± 0.021 |
| TGAATAAATT | 1.02 ± 0.015 |

| Sequence | switch fluorescence ratio |
| --- | --- |
| TGAATAGAAC | 1.01 ± 0.015 |
| TGAATCATGG | 0.972 ± 0.022 |
| TGAATGACGG | 0.993 ± 0.026 |
| TGAATGAGAT | 0.967 ± 0.014 |
| TGAATGATTG | 0.995 ± 0.013 |
| TGAATGATTT | 0.967 ± 0.027 |
| TGAATGGGGG | 1.01 ± 0.045 |
| TGAATGTTTG | 1.01 ± 0.036 |
| TGAATTATAG | 1 ± 0.015 |
| TGAATTGGTG | 1.031 ± 0.0055 |
| TGAATTTAGA | 0.986 ± 0.025 |
| TGAATTTAGC | 1 ± 0.035 |
| TGAATTTAGT | 0.9729 ± 0.0089 |
| TGAATTTATA | 1.024 ± 0.0093 |
| TGAATTTATT | 1 ± 0.015 |
| TGAATTTTAG | 0.991 ± 0.01 |
| TGAATTTTTG | 0.989 ± 0.028 |
| TGACAAGTGG | 1.01 ± 0.015 |
| TGACAGTTGG | 1.017 ± 0.0055 |
| TGACATGGTG | 0.976 ± 0.018 |
| TGACCAATGT | 1 ± 0.028 |
| TGACCGAAAC | 1.2 ± 0.051 |
| TGACCGCGGA | 1.11 ± 0.039 |

| Sequence | switch fluorescence ratio |
| --- | --- |
| TGACCTGCAC | 1.51 ± 0.034 |
| TGACGAAACT | 1.35 ± 0.33 |
| TGACGAAGGA | 1.23 ± 0.3 |
| TGACGACCGC | 3.33 ± 0.48 |
| TGACGAGGGG | 0.967 ± 0.031 |
| TGACGCAGGT | 1.38 ± 0.04 |
| TGACGCGCGT | 1.014 ± 0.0018 |
| TGACGGAGGC | 1.06 ± 0.051 |
| TGACGGCCAG | 1.01 ± 0.013 |
| TGACGGGTTT | 1.06 ± 0.12 |
| TGACGTTATC | 1.18 ± 0.025 |
| TGACGTTCAG | 0.996 ± 0.02 |
| TGACTGCTGG | 1.01 ± 0.027 |
| TGACTGGGAA | 1.06 ± 0.091 |
| TGAGAAGGGG | 0.991 ± 0.041 |
| TGAGACAATA | 1.1 ± 0.011 |
| TGAGAGAAGT | 0.968 ± 0.071 |
| TGAGAGAGAA | 1.01 ± 0.019 |
| TGAGAGATTT | 0.984 ± 0.011 |
| TGAGAGGCGA | 1.01 ± 0.011 |
| TGAGAGTAAC | 0.946 ± 0.07 |
| TGAGAGTTTA | 1.024 ± 0.0062 |
| TGAGATTAAA | 1.01 ± 0.0098 |

| Sequence | switch fluorescence ratio |
| --- | --- |
| TGAGATTTGT | 1.06 ± 0.12 |
| TGAGCAGAGG | 1.04 ± 0.015 |
| TGAGCAGTTG | 1.06 ± 0.12 |
| TGAGCATAGT | 1.026 ± 0.0023 |
| TGAGCCCACG | 1.027 ± 0.0039 |
| TGAGCTTTTT | 0.993 ± 0.03 |
| TGAGGAAAGA | 0.988 ± 0.035 |
| TGAGGAAGGG | 1.04 ± 0.099 |
| TGAGGAATGT | 1.0157 ± 0.00058 |
| TGAGGACCCT | 1.02 ± 0.025 |
| TGAGGCAAGG | 1.69 ± 0.47 |
| TGAGGCGGGT | 1.05 ± 0.016 |
| TGAGGGAATT | 1.01 ± 0.018 |
| TGAGGGATGT | 1.04 ± 0.059 |
| TGAGGGGAGT | 0.9908 ± 0.0067 |
| TGAGGGGATA | 1.01 ± 0.025 |
| TGAGGGGGAC | 1.02 ± 0.087 |
| TGAGGGGGTT | 0.997 ± 0.049 |
| TGAGGGGTAG | 0.988 ± 0.05 |
| TGAGGGTAAG | 1.13 ± 0.21 |
| TGAGGGTTCT | 0.979 ± 0.02 |
| TGAGGTATG | 0.971 ± 0.046 |
| TGAGGTATTA | 1.0075 ± 0.00077 |

| Sequence | switch fluorescence ratio |
| --- | --- |
| TGAGGTGGTG | 1.01 ± 0.0074 |
| TGAGGTGTTG | 1.01 ± 0.063 |
| TGAGGTTGGC | 1.01 ± 0.023 |
| TGAGTAACAG | 0.981 ± 0.012 |
| TGAGTAATTT | 1.01 ± 0.037 |
| TGAGTACGTC | 1.06 ± 0.14 |
| TGAGTCAGTG | 1.0116 ± 0.00046 |
| TGAGTCCATT | 0.985 ± 0.018 |
| TGAGTCGCGT | 1.01 ± 0.013 |
| TGAGTGTGGG | 0.99 ± 0.03 |
| TGAGTGTGTA | 1.03 ± 0.042 |
| TGAGTTAAAG | 0.9876 ± 0.0082 |
| TGAGTTAAGT | 0.997 ± 0.01 |
| TGAGTTATCG | 0.968 ± 0.033 |
| TGAGTTCTTG | 0.982 ± 0.046 |
| TGAGTTGGAC | 1.08 ± 0.067 |
| TGAGTTGGAG | 0.9878 ± 0.002 |
| TGAGTTGGCT | 1.02 ± 0.014 |
| TGAGTTGGGA | 1.002 ± 0.0057 |
